The record followed here is patent publication US10208121B2, “Anti-Axl antagonistic antibodies” (BERGEN TEKNOLOGIOVERFORING AS, priority 2014, dated 2019).

Entries after “also recorded” stand apart in the source; their conditions may differ.

Assay [1] has as its system Axl-positive breast cancer cell line MDA-MB-231. Kind of assay: Flow cytometry binding to Axl-positive MDA-MB-231 cells. The format is cell-based, human. The settings on record: different antibody concentrations, MFI. As for the experimental part:
Different concentrations of mouse and chimeric antibodies were tested in flow cytometry for binding to triple-negative breast cancer cell line MDA-MB-231. The bound mouse and chimeric antibodies were detected with APC-conjugated donkey F(ab′)2 fragments specific for either mouse IgG (H+L), 1:500 dilution, or human IgG (H+L), 1:300 dilution, respectively (both from Jackson ImmunoResearch). The cell staining was measured using Accuri C6 flow cytometer (BD Biosciences). MFI, geometric mean fluorescence intensity.
The purified chimeric antibodies (>95% purity) were analysed for binding to Axl-positive breast cancer cell line MDA-MB-231 in flow cytometry. For comparison, the parental mouse MAbs 10C9 and 10G5 were used. For flow cytometry, the adherent cells in culture were washed with PBS, detached by treatment with trypsin (0.25%) for 1 min and hitting culture dish for full detachment. Trypsin was quenched by adding into the tissue flask the complete medium followed by washing the cells with PBS. During the washing steps, the cells were collected by centrifugation at 200 g for 5 min. The antibody was diluted for total concentration in PBS containing 0.02% bovine serum albumin (BSA). Cell staining was performed using 200 μL of cell suspension comprising 10^5 cells for 20 min at room temperature. The cell-bound antibodies were detected with APC-conjugated donkey anti-human or anti-mouse, respectively, IgG (H+L) F(ab′)2 fragments (Jackson ImmunoResearch). After two washing steps with PBS/0.02% BSA, the cells were resuspended in 200 μL and kept on ice before analysis on Accuri C6 flow cytometer (BD Biosciences).
For orientation: Flow cytometry measures light scatter and fluorescence of single cells or particles in a stream.

For a further assay, the system named is MDA-MB-231. Kind of assay: Growth of MDA-MB-231 cells in three-dimensional (3D) organotypic model. The format is cell-based, human. The following applies: for growth and tumour mass development in extracellular matrix: MDA-MB-231, 50-100 μg/mL, day 6, versus control irrelevant IgG. The method, then:
A highly aggressive triple-negative human breast cancer cell line MDA-MB-231 (ATCC® HTB-26™) was cultured according to recommended conditions in Dulbecco's Modified Eagle's Medium/Nutrient Mixture F-12 Ham medium supplemented with 10% foetal bovine serum (FBS), glutamine and penicillin and streptomycin. The cells were pre-treated in suspension for at least 1 hour at 37° C., to ensure proper binding of antibodies on the cell surface before they were placed in extracellular matrix. The cells cultures were observed every day and fresh treatments were done every other day. The antibodies were used at concentrations 50-100 μg/mL. Imaging of coverslip 3D assay (35 mm dish) was done on a NIKON light microscopy using both Phase contrast and Hoffman optics. Already at day 3, difference in growth of cells treated with either MAb 10C9 or MAb10G5 and cells treated with a control irrelevant IgG was observed.

The subject of assay [2] is Gas6-mediated Axl signalling (phosphorylation of Akt on Ser^473). As to the kind of experiment: Gas6-induced Axl downstream signalling, Western blot of phospho-Akt (Ser^473). The following applies: HeLa cells, 1 μg/mL antibody for 1 hr, then mouse Gas6 10 μg/mL for 20 min. The format is cell-based, human. The method, then:
Western blot analysis illustrating inhibition of Gas6-mediated Axl signalling in the presence of mouse monoclonal antibodies 10C9 and 10G5. Phosphorylation of Akt on Ser^473 was used as surrogate readout for Axl activity. M, molecular weight markers. Immunoblots of total cell lysates were probed with anti-phospho-Akt (Ser^473), or anti-GAPDH (glyceraldehyde 3-phosphate dehydrogenase) as loading control.
The experiments were performed using human cervical cancer derived cell line HeLa (ATCC® CCL-2™). The cells were grown in T175 flasks to 80% confluency in MEM culture medium (Sigma) supplemented with 10% FBS, penicillin-streptomycin and L-glutamine. The cells were washed with PBS and detached by treatment with 0.25% Trypsin/EDTA (Sigma) followed by centrifugation and resuspension in fresh medium (MEM/0.5% FBS). The cells were seeded in Petri dishes (3×10^6 cells per dish) in MEM medium supplemented with 10% FBS. After three hrs incubation at 37° C., the cells were washed with PBS and kept in starvation medium (MEM/0.5% FBS) overnight. The cells were pre-incubated with anti-Axl antibody 10C9 or 10G5 at concentration 1 μg/mL for 1 hr followed by stimulation with Axl ligand, recombinant mouse Gas6 (R&D Systems), at concentration 10 μg/mL for 20 min. […] Detection with anti-GAPDH antibody (Millipore) was used as loading control.
(In general: Immunoblotting shows a protein as a band on a membrane.)

A further assay relates to Mv4-11 tumours. As to the kind of experiment: Mv4-11 AML xenograft in nude mice. The format is in vivo, mouse. As for the experimental part:
Inhibition of Mv4-11 xenograft tumour growth by the chimeric antibody 10G5. The antibody was administrated intraperitoneally at 30 mg/kg, twice a week, starting when the mean tumour size reached 200 mm^3. Tumour growth curves for the groups treated with either vehicle (sterile PBS) or chimeric 10G5 are shown. Error bars represent standard error of the mean (SEM). Statistical analysis was performed using two-way ANOVA. *, P<0.05; **, P<0.01; ****, P<0.0001.
To evaluate the anti-tumour activity of anti-Axl chimeric antibodies in a model of haematological cancer, we used a mouse xenograft model of human acute myeloid leukaemia (AML). The human AML Mv4-11 cells (ATCC # CRL-9591) cells were propagated in suspension in IMDM medium supplemented with 10% FBS, 2 mM L-Glutamine, 100 U/ml penicillin and 100 μg/ml streptomycin. Nude mice were implanted s.c. into the flank with 5×10^6 Mv4-11 cells resuspended in the mixture of serum-free IMDM medium and Matrigel (1:1). When the tumour size reached 200 mm^3 (Day 0 in FIG. 15), the animals were randomized and treated with either vehicle (sterile PBS) or anti-Axl chimeric antibody 10G5 at 30 mg/kg, by i.p. injections twice weekly for 4 weeks.

The next assay concerns A549 tumours. Kind of assay: A549 NSCLC xenograft in nude mice. The format is in vivo, mouse. The method, then:
Inhibition of A549 xenograft tumour growth by chimeric antibody 10G5. The antibody was administrated intraperitoneally at 20 mg/kg, twice a week, starting when the mean tumour size reached 100 mm^3. Tumour growth curves for the groups treated with either vehicle (sterile PBS) or chimeric 10G5 are shown. Error bars represent standard error of the mean (SEM). Statistical analysis was performed using two-way ANOVA. **, P<0.01.
To evaluate the anti-tumour activity of anti-Axl chimeric antibodies in vivo, we used a mouse xenograft model of human non-small cell lung cancer (NSCLC). The human NSCLC A549 cells (ATCC #CCL-185) A549 cells were propagated in vitro as a monolayer culture in DMEM medium supplemented with 10% FBS, 2 mM L-Glutamine, 100 U/ml penicillin and 100 μg/ml streptomycin, 0.01M HEPES buffer, 0.45% D-(+)-glucose, 1 mM sodium pyruvate. Nude mice were implanted subcutaneously (s.c.) into the flank with 5×10^6 A549 cells resuspended in serum-free medium/Matrigel (1:1). When the tumour size reached 100 mm^3 (Day 0 in FIG. 14), the animals were randomized and treated with either vehicle (sterile PBS) or anti-Axl chimeric antibody 10G5 at 20 mg/kg, by intraperitoneal (i.p.) injections twice weekly for 4 weeks.

B1: 10C9: mouse anti-Axl monoclonal antibody from hybridoma UT-10C9-B9, IgG2b; VH SEQ ID NO: 3, VL SEQ ID NO: 4 (antibody, listed as Mus musculus, V domains shown)
VH: QVQLQQPGPELVKPGASVKISCKTSDYNFTRYYIHWVKQRPGQGLEWIGWIYPGTGDSKYNEKFKGRATLTADTSSSTAYMQLSSQTSEDSAVYFCARNGNYWYFDVWGAGTAVTVSS
VL: DIVMTQAAPSGPVTPGESVSISCRSSKSLLHSNGNTYLYWFLQRPGQSPQLLIYRMSNLASGVPDRFSGSGSGTAFTLRISRVEAEDVGIYYCMQHREYPFTFGGGTKLEIK
On to B1, for which the “binding to MDA-MB-231 cells in flow cytometry” value in assay [1] is recorded as “Dose-dependent binding”. For the same molecule, the “growth and tumour mass development in extracellular matrix” value in the assay on MDA-MB-231 was “significantly inhibited growth and tumour mass development”. In assay [2], the “Gas6-induced phosphorylation of Akt on Ser^473” value was “significantly reduces; also recorded: significantly be reduced”.

B2: 10G5: mouse anti-Axl monoclonal antibody from hybridoma WR-10G5-E5, IgG1; VH SEQ ID NO: 21, VL SEQ ID NO: 22 (antibody, listed as Mus musculus, V domains shown)
VH: QVQLQQSGAELVRPGASVKLSCKASGYSFTDFYINWVRQRPGQGLEWIARIFPGGDNTYYNEKFKGKATLTAEESSSTAYIQLSSLTSEDSAVYFCARRGLYYAMDYWGQGISVTVSS
VL: DVLMTQTPLSLPVSLGDQASISCRSSQSLVHSNGIPYLHWYLQKPGQSPKLLIYRVSNRFSGVPDRFSGSGSGTDFTLKISRVEAEDLGVYFCSQGTHVPPTFGGGTKLEIK
B2: in the assay on MDA-MB-231 (MDA-MB-231 3D culture), the “viability of treated cells (nuclei staining)” value is given as “still viable”. Also, the “growth and tumour mass development in extracellular matrix” value in the assay with MDA-MB-231 was “significantly inhibited growth and tumour mass development”.

B3: c10G5: chimeric (mouse variable/human constant) IgG1 variant of antibody 10G5 (antibody)
heavy: B2 VH
light: B2 VL
modifications: left off: a dimerising Fc or GST
notes: chimeric (mouse variable/human constant) IgG1 variant of antibody 10G5
For B3, the “binding to MDA-MB-231 cells in flow cytometry” value in assay [1] is reported as “Dose-dependent binding”. In addition, in the assay on Mv4-11 tumours (30 mg/kg i.p. twice weekly for 4 weeks, P<0.0001, two-way ANOVA), the “growth of Mv4-11 tumours compared with the control” value is listed as “extremely significantly attenuated growth of Mv4-11 tumours”. Also, the “inhibition of tumour growth” value is “around 75%” with Mv4-11 tumours (30 mg/kg i.p. twice weekly, after three weeks of treatment, versus vehicle (PBS)) and “around 40%” in the assay on A549 tumours (20 mg/kg i.p. twice weekly, after four weeks of treatment, versus vehicle (PBS)). Also, the “growth of A549 tumours compared with the control” value in the assay on A549 tumours (20 mg/kg i.p. twice weekly for 4 weeks, P<0.01, two-way ANOVA) was “significantly attenuated growth of A549 tumours”.
